Where a chain is given by its changes, count along the chain named. Blank lines part the entries; values can stand above or below the molecule they belong to. The star is where a group is joined. Biotin = O=C1N[C@H]2[C@H](CS[C@H]2CCCCC(=O)*)N1
Assays:
p47^phox = p47^phox (Homo sapiens, UniProt P14598); experiment: ELISA of p47phox-p22phox peptide interaction; type: binding
His-p47^phox wild type = biological target: T1, His-p47^phox wild type (human, UniProt P14598 1-390); experiment: ELISA
T1 sequence (looked up): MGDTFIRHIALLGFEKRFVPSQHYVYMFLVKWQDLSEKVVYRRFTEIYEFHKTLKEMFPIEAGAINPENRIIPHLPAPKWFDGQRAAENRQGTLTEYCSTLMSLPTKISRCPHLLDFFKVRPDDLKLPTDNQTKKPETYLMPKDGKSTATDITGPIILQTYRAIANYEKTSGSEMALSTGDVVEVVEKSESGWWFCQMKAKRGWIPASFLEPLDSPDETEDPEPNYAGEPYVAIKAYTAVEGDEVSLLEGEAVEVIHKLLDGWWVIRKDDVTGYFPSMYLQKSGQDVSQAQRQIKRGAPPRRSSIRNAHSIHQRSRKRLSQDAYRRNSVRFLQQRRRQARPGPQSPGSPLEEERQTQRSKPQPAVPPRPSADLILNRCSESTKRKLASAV

C98G-p47^phox = biological target: T2, C98G-p47^phox (human, UniProt P14598 1-390, C98G); experiment: ELISA
T2 sequence (looked up): T1 sequence (looked up) with C98G

C111A-p47^phox = biological target: T3, C111A-p47^phox (human, UniProt P14598 1-390, C111A); experiment: ELISA
T3 sequence (looked up): T1 sequence (looked up) with C111A

C196A-p47^phox = biological target: T4, C196A-p47^phox (human, UniProt P14598 1-390, C196A); experiment: ELISA
T4 sequence (looked up): T1 sequence (looked up) with C196A

C378A-p47^phox = biological target: T5, C378A-p47^phox (human, UniProt P14598 1-390, C378A); experiment: ELISA
T5 sequence (looked up): T1 sequence (looked up) with C378A

Sequence of p47^phox (P13498 2-195, one chain of several): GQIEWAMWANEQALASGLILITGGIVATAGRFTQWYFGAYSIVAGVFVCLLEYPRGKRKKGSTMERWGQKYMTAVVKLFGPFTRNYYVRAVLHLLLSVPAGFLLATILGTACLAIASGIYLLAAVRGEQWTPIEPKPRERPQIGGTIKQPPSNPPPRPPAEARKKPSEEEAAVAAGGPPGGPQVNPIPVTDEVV

Molecule: O=C1C=CC(=O)c2ccccc21 [1,4-naphthoquinone]
IC50 (p47^phox): 700 nM

binding result (His-p47^phox wild type): binds
binding result (C98G-p47^phox): binds
binding result (C111A-p47^phox): binds
binding result (C196A-p47^phox): binds
binding result (C378A-p47^phox): binds
B1: proline-rich p22^phox peptide (biotin-p22^phox) (peptide)
peptide: Biotin-SGSGPPSNPPPRPPAEARK-NH2
SMILES: C[C@H](NC(=O)[C@H](CCC(=O)O)NC(=O)[C@H](C)NC(=O)[C@@H]1CCCN1C(=O)[C@@H]1CCCN1C(=O)[C@H](CCCNC(=N)N)NC(=O)[C@@H]1CCCN1C(=O)[C@@H]1CCCN1C(=O)[C@@H]1CCCN1C(=O)[C@H](CC(N)=O)NC(=O)[C@H](CO)NC(=O)[C@@H]1CCCN1C(=O)[C@@H]1CCCN1C(=O)CNC(=O)[C@H](CO)NC(=O)CNC(=O)[C@H](CO)NC(=O)CCCC[C@@H]1SC[C@@H]2NC(=O)N[C@@H]21)C(=O)N[C@@H](CCCNC(=N)N)C(=O)N[C@@H](CCCCN)C(N)=O

Reference: PMC3278529 (Free radical biology & medicine, 2011)
